# Results: US8436159B2, “Glyphosate resistant class I 5-endolpyruvylshikimate-3-phosphate synthase (EPSPS)” (Monsanto Technology LLC, priority 2003, dated 2013)
# B1: maize (Zea mays) class I EPSPS variant TIPC (T102I, P106C), pMON42485 (Zea mays; P106C/T102I) (protein)
# chain: AGAEEIVLQPIKEISGTVKLPGSKSLSNRILLLAALSEGTTVVDNLLNSEDVHYMLGALRTLGLSVEADKAAKRAVVVGCGGKFPVEDAKEEVQLFLGNAGIAMRCLTAAVTAAGGNATYVLDGVPRMRERPIGDLVVGLKQLGADVDCFLGTDCPPVRVNGIGGLPGGKVKLSGSISSQYLSALLMAAPLALGDVEIEIIDKLISIPYVEMTLRLMERFGVKAEHSDSWDRFYIKGGQKYKSPKNAYVEGDASSASYFLAGAAITGGTVTVEGCGTTSLQGDVKFAEVLEMMGAKVTWTETSVTVTGPPREPFGRKHLKAIDVNMNKMPDVAMTLAVVALFADGPTAIRDVASWRVKETERMVAIRTELTKLGASVEEGPDYCIITPPEKLNVTAIDTYDDHRMAMAFSLAACAEVPVTIRDPGCTRKTFPDYFDVLSTFVKN
# Substrate: C=C(OP(=O)(O)O)C(=O)O
# Experiment: purified protein, by the assay type
# Settings: other: pH 7.0, 1 mM shikimate-3-phosphate
# From the text: The double variants of the present invention were made using pMON58452 (FIG. 5) as the template. This pMON58452 EPSPS gene template contains the maize EPSPS double variant T102I, P106T (TIPT) that was constructed by mutagenesis of pMON70467 with the mutagenesis primers mEmut-9-U and mEmut-10-L. The various mutagenesis primer sequences were designed and then were synthesized by Invitrogen Corp., Custom Primers and used in combination in a PCR to create the variant EPSPS coding sequences. The PCR was set up in a 50 μl reaction in the following manner: dH2O 38 μl; 2 mM dNTP 1 μL; 10× buffer 5 μL; pMON58452 1 μL (10 ng); primer-U 2 μL; primer-L 2 μL; pfu Turbo enzyme 1 μL. PCR was carried out on a MJ Research PTC-200 thermal cycler using the following program: Step 1—94° C. for 30 seconds; Step 2—94° C. for 30 seconds; Step 3—55° C. for 1 minute; Step 4—68° C. for 14 minute; Step 5—go to step 2, 16 times; Step 6—End. At the end of the PCR, 1 μl of the restriction enzyme DpnI was added to each 50 μl of PCR reaction and the mixture was incubated at 37° C. for 1 hour. […]
protein,measurement,value
B1,Km,47.0 ± 4.0 µM
